Here are results for one substance from PMC6921968.

Where only a bound is given, the exact number is not on record here.

The test addresses SpyCatcher::HBsAg VLP (hepatitis B surface antigen genetically fused to SpyCatcher) (Streptococcus pyogenes | hepatitis B virus). Kind of test: covalent (isopeptide) coupling, SDS-PAGE with Coomassie staining and densitometry; SpyCatcher::HBsAg VLP incubated with Pfs25::SpyTag at molar ratio 1.5, 0.5 or 0.1, 3 h to overnight at room temperature, with 10x reaction buffer (40 mM Na2HPO4, 200 mM sodium citrate, pH 6.2); dialysed (100 kDa cut-off) against TBS; conjugation efficiency = % of total SpyCatcher::HBsAg coupled to Pfs25::SpyTag.

Consider Pfs25::SpyTag (Pfs25-SpyTag-Ctag), for which the conjugation efficiency (% of total SpyCatcher::HBsAg coupled to Pfs25::SpyTag) at molar ratio 0.1 worked out at 10%, the conjugation efficiency (% of total SpyCatcher::HBsAg coupled to Pfs25::SpyTag) at molar ratio 0.5 is 50% and the conjugation efficiency (% of total SpyCatcher::HBsAg coupled to Pfs25::SpyTag) at molar ratio 1.5 is more than 90%.
